T1: ADAMTS-4 (as used in Example 4; form not stated) (Homo sapiens (Human)) (UniProt O75173)
T1 sequence: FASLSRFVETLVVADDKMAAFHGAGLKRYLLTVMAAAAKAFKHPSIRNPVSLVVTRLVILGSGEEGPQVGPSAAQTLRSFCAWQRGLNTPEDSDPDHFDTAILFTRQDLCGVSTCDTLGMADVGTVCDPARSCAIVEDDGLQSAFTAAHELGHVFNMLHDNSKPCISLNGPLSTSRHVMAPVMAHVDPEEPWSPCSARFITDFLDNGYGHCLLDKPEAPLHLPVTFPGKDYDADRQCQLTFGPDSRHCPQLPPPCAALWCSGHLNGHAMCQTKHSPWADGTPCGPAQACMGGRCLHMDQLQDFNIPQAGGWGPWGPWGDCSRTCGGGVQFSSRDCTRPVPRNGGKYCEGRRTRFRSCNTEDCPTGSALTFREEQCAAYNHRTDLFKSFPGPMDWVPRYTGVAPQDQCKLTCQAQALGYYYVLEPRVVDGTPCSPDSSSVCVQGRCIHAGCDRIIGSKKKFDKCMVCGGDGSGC

B1: (-2A)N-TIMP-3 (protein)
chain: AACTCSPSHPQDAFCNSDIVIRAKVVGKKLVKEGPFGTLVYTIKQMKMYRGFTKMPHVQYIHTEASESLCGLKLEVNKYQYLLTGRVYDGKMYTGLCNFVERWDQLTLSQRKGLNYRYHLGCN
B2: wild-type N-TIMP-3 (N-terminal inhibitory domain of tissue inhibitor of metalloproteinase-3), C-terminally His-tagged (protein)
chain: CTCSPSHPQDAFCNSDIVIRAKVVGKKLVKEGPFGTLVYTIKQMKMYRGFTKMPHVQYIHTEASESLCGLKLEVNKYQYLLTGRVYDGKMYTGLCNFVERWDQLTLSQRKGLNYRYHLGCN

What was measured:
[1] = target: soluble form of TACE in which the transmembrane and C-terminal cytoplasmic domains are deleted (TACE R651) (human) (UniProt P78536)
[2] = target: catalytic domain of stromelysin 1 (MMP-3(ΔC)) (Homo sapiens (Human)) (UniProt P08254); assay: enzyme inhibition kinetics, Ki(app), as in Example 1
[3] = target: TACE/ADAM17 on human monocytic cells (THP-1 cells; monocyte-derived macrophages) (human) (UniProt P78536)
[4] = target: soluble form of TACE in which the transmembrane and C-terminal cytoplasmic domains are deleted (TACE R651) (human) (UniProt P78536); assay: TACE inhibition kinetics at pH 7.5
[5] = target: T1, ADAMTS-4 (as used in Example 4; form not stated) (Homo sapiens (Human)); assay: GST-IGD-FLAG substrate assay, Ki(app)
[6] = target: ADAMTS-5 (Homo sapiens (Human)) (UniProt Q9UNA0); assay: GST-IGD-FLAG substrate assay, Ki(app)
[7] = target: full-length collagenase 1 (MMP-1) (Homo sapiens (Human)) (UniProt P03956); assay: enzyme inhibition kinetics, Ki(app), as in Example 1
Sequence of full-length collagenase 1 (MMP-1) (Homo sapiens (Human)) (P03956 100-469 limits assumed): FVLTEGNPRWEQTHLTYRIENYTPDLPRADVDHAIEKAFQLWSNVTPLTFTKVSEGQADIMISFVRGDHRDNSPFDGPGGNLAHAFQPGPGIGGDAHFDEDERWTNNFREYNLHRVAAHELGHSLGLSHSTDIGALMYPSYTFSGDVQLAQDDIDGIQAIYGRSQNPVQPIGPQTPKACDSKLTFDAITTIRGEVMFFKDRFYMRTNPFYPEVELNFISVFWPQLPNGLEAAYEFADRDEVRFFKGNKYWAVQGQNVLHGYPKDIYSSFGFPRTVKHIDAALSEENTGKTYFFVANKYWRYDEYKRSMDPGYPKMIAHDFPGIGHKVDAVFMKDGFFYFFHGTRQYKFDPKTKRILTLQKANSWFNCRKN

[8] = target: gelatinase A (MMP-2) (Homo sapiens (Human)) (UniProt P08253); assay: as above
Sequence of gelatinase A (MMP-2) (Homo sapiens (Human)) (P08253 110-660 limits assumed): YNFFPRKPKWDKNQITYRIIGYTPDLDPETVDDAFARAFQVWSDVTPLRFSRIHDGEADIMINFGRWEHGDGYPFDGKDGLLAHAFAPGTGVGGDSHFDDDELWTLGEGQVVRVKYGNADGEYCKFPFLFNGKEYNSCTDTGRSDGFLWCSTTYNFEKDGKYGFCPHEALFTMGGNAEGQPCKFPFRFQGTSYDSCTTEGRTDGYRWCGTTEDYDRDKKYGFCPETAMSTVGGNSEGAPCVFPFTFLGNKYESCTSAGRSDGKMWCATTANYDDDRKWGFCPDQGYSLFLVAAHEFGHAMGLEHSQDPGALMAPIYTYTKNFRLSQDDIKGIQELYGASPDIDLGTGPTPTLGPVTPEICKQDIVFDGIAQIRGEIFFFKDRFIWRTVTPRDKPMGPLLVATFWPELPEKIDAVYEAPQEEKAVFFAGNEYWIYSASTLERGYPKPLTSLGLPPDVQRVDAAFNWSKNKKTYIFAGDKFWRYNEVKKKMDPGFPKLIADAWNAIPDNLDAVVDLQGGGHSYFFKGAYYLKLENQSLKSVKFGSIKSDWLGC

[9] = target: full-length collagenase 1 (MMP-1) (Homo sapiens (Human)) (UniProt P03956); assay: MMP-1 inhibition under the conditions used for TACE activity measurements
[10] = target: soluble form of TACE in which the transmembrane and C-terminal cytoplasmic domains are deleted (TACE R651) (human) (UniProt P78536); assay: TACE inhibition kinetics, Ki(app), pH 9.0, fit with equation 3 (cooperative)

Binder | inhibition of TACE activity (% inhibition at 100 nM) [1] | Ki [2] | LPS stimulated TNFα release by monocyte-derived macrophages (ELISA) [3] | Ki [4] | Ki [5] | Ki [6] | Ki [7] | Ki [8] | Ki [9] | Ki [10]
B1 | 80 to 90 | > 250 nM |  |  |  |  |  |  |  | 
B2 |  | 1.8 nM | 180 nM | 26 nM | 2.4 nM | 0.4 nM | 8.2 nM | 5.1 nM | 1.6 nM | 13.7 nM
